Assays:
[1] = biological target: T1, Fur (ferric uptake regulator) (Neisseria gonorrhoeae F62, UniProt Q51008 1-144); assay: EMSA; Mn2+; apparent Kd; 20 mM Tris-Cl pH 7.9, 5 mM MgCl2, 40 mM KCl, 0.125 mM MnCl2, 2 mM DTT, 10% glycerol, 0.19 ug/uL poly dIdC (EMSA also 3.125 ug/uL BSA), RT; IRIS 2 hr, EMSA 30 min with 12.5 nM probe; details: protein: recombinant; tags: N-terminal 6xHis (pET15b) cleaved with thrombin and removed; chain copies: 2; label: surface-immobilized (IRIS); 32P (EMSA); blunt
T1 sequence: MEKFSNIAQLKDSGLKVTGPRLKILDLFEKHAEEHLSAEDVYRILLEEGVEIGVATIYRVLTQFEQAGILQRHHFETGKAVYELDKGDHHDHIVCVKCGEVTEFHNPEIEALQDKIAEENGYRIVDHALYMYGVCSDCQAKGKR

[2] = biological target: T1, Fur (ferric uptake regulator); assay: IRIS; 200 nM Fur; 1 dimer/dsDNA; 20 mM Tris-Cl pH 7.9, 5 mM MgCl2, 40 mM KCl, 0.125 mM MnCl2, 2 mM DTT, 10% glycerol, 0.19 ug/uL poly dIdC (EMSA also 3.125 ug/uL BSA), RT; IRIS 2 hr, EMSA 30 min with 12.5 nM probe; details: protein: recombinant, tags: N-terminal 6xHis (pET15b) cleaved with thrombin and removed, chain copies: 2, blunt
[3] = biological target: T1, Fur (ferric uptake regulator); assay: IRIS; 400 nM Fur (concentration implied); ~1 dimer/dsDNA; 20 mM Tris-Cl pH 7.9, 5 mM MgCl2, 40 mM KCl, 0.125 mM MnCl2, 2 mM DTT, 10% glycerol, 0.19 ug/uL poly dIdC (EMSA also 3.125 ug/uL BSA), RT; IRIS 2 hr, EMSA 30 min with 12.5 nM probe; details: protein: recombinant; tags: N-terminal 6xHis (pET15b) cleaved with thrombin and removed; chain copies: 2; label: surface-immobilized; blunt
[4] = biological target: T1, Fur (ferric uptake regulator); assay: IRIS; 400 nM Fur; 0.5 dimer/dsDNA; 20 mM Tris-Cl pH 7.9, 5 mM MgCl2, 40 mM KCl, 0.125 mM MnCl2, 2 mM DTT, 10% glycerol, 0.19 ug/uL poly dIdC (EMSA also 3.125 ug/uL BSA), RT; IRIS 2 hr, EMSA 30 min with 12.5 nM probe; details: protein: recombinant; tags: N-terminal 6xHis (pET15b) cleaved with thrombin and removed; chain copies: 2; label: surface-immobilized; blunt
[5] = biological target: T1, Fur (ferric uptake regulator); assay: IRIS; no DSH increase up to 800 nM Fur; 20 mM Tris-Cl pH 7.9, 5 mM MgCl2, 40 mM KCl, 0.125 mM MnCl2, 2 mM DTT, 10% glycerol, 0.19 ug/uL poly dIdC (EMSA also 3.125 ug/uL BSA), RT; IRIS 2 hr, EMSA 30 min with 12.5 nM probe; details: protein: recombinant; tags: N-terminal 6xHis (pET15b) cleaved with thrombin and removed; chain copies: 2; label: surface-immobilized; blunt

B1: fur promoter Fur box probe (dsDNA)
DNA 1: CTGCTTGAATATTTTATAAAAGCGAACGATAATCATACGCTTAAGCGGT
DNA 2: ACCGCTTAAGCGTATGATTATCGTTCGCTTTTATAAAATATTCAAGCAG
modifications: 5' amino-C6 on strand 1 (IRIS)
**Q.** With B1 as the binder, how does the Kd [1] read?
**A.** 31.8 ± 7.9 nM

B2: NGO0073 promoter probe (dsDNA)
DNA 1: CTGTATAAATGATAATGGTTCTATTTTAATAAAGCACAACGCGGCTTGT
DNA 2: ACAAGCCGCGTTGTGCTTTATTAAAATAGAACCATTATCATTTATACAG
modifications: 5' amino-C6 on strand 1 (IRIS)
**Q.** Which Kd [1] does the source give for B2 here?
**A.** 39.8 ± 6.3 nM

B3: NGO0641 promoter probe (dsDNA)
DNA 1: AAAGACAGCAAAGAATTGATTTTATTATAATTTATTTGTAAAGCCATTT
DNA 2: AAATGGCTTTACAAATAAATTATAATAAAATCAATTCTTTGCTGTCTTT
modifications: 5' amino-C6 on strand 1
**Q.** Which binding signal ([2]; label: surface-immobilized) does the source give for B3 here?
**A.** 2 ± 0.1 nm DSH

B4: NGO1419 promoter probe (dsDNA)
DNA 1: TGACGAAAAAACAAAGAAGTATACTTCTTTTTAGTTATGGTTGATTCCA
DNA 2: TGGAATCAACCATAACTAAAAAGAAGTATACTTCTTTGTTTTTTCGTCA
modifications: 5' amino-C6 on strand 1
**Q.** With B4 as the binder, how does the binding signal ([2]; label: surface-immobilized) read?
**A.** 1.9 ± 0.4 nm DSH

B5: NGO0155 promoter probe (dsDNA)
DNA 1: GATATTTTGTGCTAAAAATTTATATAATATTTAAATTAATATCAAGTTA
DNA 2: TAACTTGATATTAATTTAAATATTATATAAATTTTTAGCACAAAATATC
modifications: 5' amino-C6 on strand 1
**Q.** With B5 as the binder, how does the binding signal [3] read?
**A.** 1.9 ± 0.1 nm DSH

B6: NGO0304 promoter probe (dsDNA)
DNA 1: GAACGAAAATTGATAAAACAAAAGTTAATTAATTGATTGAGAACATAAC
DNA 2: GTTATGTTCTCAATCAATTAATTAACTTTTGTTTTATCAATTTTCGTTC
modifications: 5' amino-C6 on strand 1
**Q.** B6 was tested. Which binding signal [3] did it give?
**A.** 2 ± 0.1 nm DSH

B7: NGO0899 promoter probe (dsDNA)
DNA 1: TTTTATGCCGAAAATTGATTTTTTTTAAATTTTTTGTTTCTAAAATTTT
DNA 2: AAAATTTTAGAAACAAAAAATTTAAAAAAAATCAATTTTCGGCATAAAA
modifications: 5' amino-C6 on strand 1
**Q.** How did the binding signal [3] turn out when B7 was run?
**A.** 2.2 ± 0.1 nm DSH

B8: NGO1189 promoter probe (dsDNA)
DNA 1: ACTGCCGGTTTGAAAAAAGAATCCATATCGGTGTTTCCGCGCAGGAGGC
DNA 2: GCCTCCTGCGCGGAAACACCGATATGGATTCTTTTTTCAAACCGGCAGT
modifications: 5' amino-C6 on strand 1
**Q.** How did the binding signal [3] turn out when B8 was run?
**A.** 2 ± 0.03 nm DSH

B9: NGO1284 promoter probe (dsDNA)
DNA 1: ACACGGGAAATAATATCAATATATTGATTTACAAACATAAAAATCATGC
DNA 2: GCATGATTTTTATGTTTGTAAATCAATATATTGATATTATTTCCCGTGT
modifications: 5' amino-C6 on strand 1
**Q.** B9 was tested. Which binding signal [4] did it give?
**A.** 1.7 ± 0.03 nm DSH

B10: NGO1845 promoter probe (dsDNA)
DNA 1: CGGCAAACAAGAAAATCATCTTTTTTCTTGTCGTTATGCTTGACTGTCT
DNA 2: AGACAGTCAAGCATAACGACAAGAAAAAAGATGATTTTCTTGTTTGCCG
modifications: 5' amino-C6 on strand 1
**Q.** How did the binding signal [4] turn out when B10 was run?
**A.** 1.7 ± 0.3 nm DSH

B11: NGO1948 promoter probe (dsDNA)
DNA 1: TCTTTCCGTCAAAATACTTTCTTTTTATATTCATTAACTTGTTAAATTA
DNA 2: TAATTTAACAAGTTAATGAATATAAAAAGAAAGTATTTTGACGGAAAGA
modifications: 5' amino-C6 on strand 1
**Q.** Which binding signal [4] does the source give for B11 here?
**A.** 1.7 ± 0.07 nm DSH

B12: NGO0101 promoter probe (dsDNA)
DNA 1: CATATTTGAATATAAAAAAGAGCATTGTTGCGTTATCCAATGCTGTAAT
DNA 2: ATTACAGCATTGGATAACGCAACAATGCTCTTTTTTATATTCAAATATG
modifications: 5' amino-C6 on strand 1 (IRIS)
**Q.** For B12, which binding signal ([2]; label: surface-immobilized (IRIS), 32P (EMSA)) is on record?
**A.** 1.9 ± 0.4 nm DSH

**Q.** What about the Kd [1] of the same binder?
**A.** 406 ± 145 nM

B13: NGO1683 promoter probe (NGO1684 in Table 1) (dsDNA)
DNA 1: GCGGCGATTGTAATATAAGCGGCGGTATTTGTGTAGTTTTCTTCAGACG
DNA 2: CGTCTGAAGAAAACTACACAAATACCGCCGCTTATATTACAATCGCCGC
modifications: 5' amino-C6 on strand 1
**Q.** Does B13 bind [5]?
**A.** no binding

B14: NGO1745 promoter probe (dsDNA)
DNA 1: TACAGATGAAGACAATGAGCGTGCTGTTAAAGAGTTATTTAAGTCATTT
DNA 2: AAATGACTTAAATAACTCTTTAACAGCACGCTCATTGTCTTCATCTGTA
modifications: 5' amino-C6 on strand 1
**Q.** Does B14 bind [5]?
**A.** no binding
